In series [1] the test system is HeLa Kyoto. Briefly: melting temperature (median over replicates), in situ; higher = more thermally stable.
Series [2] deals with HeLa Kyoto. Briefly: solubility in G1/S (NP-40 vs SDS abundance) (log2 ratio); higher = more soluble. The settings on record: cell cycle stage: G1/S.
The test system of series [3] is HeLa Kyoto. Briefly: thermal stability score vs G1/S (z-score of summed log2 fold changes over temperatures); higher = more thermally stable than in G1/S.
Series [4] concerns HeLa Kyoto. Description: solubility change mitosis vs G1/S (difference of NP-40 vs SDS log2 ratios) (log2 ratio difference); higher = more soluble in mitosis.
Where [5] appears, read: cell cycle stage: early G1 (4.5 h after nocodazole release).

Experimental findings from the supplement of paper PMC5998384 are described below.
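For melting temperature (median over replicates), in situ in this document: HeLa Kyoto cells synchronized by double thymidine or nocodazole block, proteins quantified by TMT10plex mass spectrometry, three independent biological replicates.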
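For solubility change mitosis vs G1/S (difference of NP-40 vs SDS log2 ratios) in this document: synchronized HeLa Kyoto cells (double thymidine block for G1/S, nocodazole release for mitosis), protein amounts in NP-40 versus SDS lysates quantified by mass spectrometry, three biological replicates.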
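For solubility in G1/S (NP-40 vs SDS abundance) in this document: HeLa Kyoto cells arrested at G1/S by double thymidine block, proteins quantified by TMT10plex mass spectrometry in mild NP-40 versus SDS extracts, three biological replicates.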
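For thermal stability score vs G1/S (z-score of summed log2 fold changes over temperatures) in this document: synchronized HeLa Kyoto cells, proteins quantified by TMT10plex mass spectrometry, three biological replicates, mitosis taken 0.5 h after nocodazole release, G1/S directly after double thymidine block.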

With “MGGGWWWARAARLARLRFRRSLLPPQRPRSGGARGSFAPGHGPRAGASPPPVSELDRADAWLLRKAHETAFLSWFRNGLLASGIGVISFMQSDMGREAAYGFFLLGGLCVVWGSASYAVGLAALRGPMQLTLGGAAVGAGAVLAASLLWACAVGLYMGQLELDVELVPEDDGTASAEGPDEAGRPPPE [TMEM160]”, the melting temperature in the series with HeLa Kyoto [1] (cell cycle stage: G1/S) came to 54.2 °C; in the series on HeLa Kyoto [1] (cell cycle stage: mitosis), 56.9 °C. In addition, the “solubility in G1/S (log2)” value in the series with HeLa Kyoto [2] is -0.112. For the same substance, the thermal stability score in the series on HeLa Kyoto [3] (setting [5]) is -1.62; in the series on HeLa Kyoto [3] (cell cycle stage: mitosis) it was -1.47. Further, the “solubility change mitosis (log2)” value in the series on HeLa Kyoto [4] was -0.0483.

As for “MWLKVGGLLRGTGGQLGQTVGWPCGALGPGPHRWGPCGGSWAQKFYQDGPGRGLGEEDIRRAREARPRKTPRPQLSDRSRERKVPASRISRLANFGGLAVGLGLGVLAEMAKKSMPGGRLQSEGGSGLDSSPFLSEANAERIVQTLCTVRGAALKVGQMLSIQDNSFISPQLQHIFERVRQSADFMPRWQMLRVLEEELGRDWQAKVASLEEVPFAAASIGQVHQGLLRDGTEVAVKIQYPGIAQSIQSDVQNLLAVLKMSAALPAGLFAEQSLQALQQELAWECDYRREAACAQNFRQLLANDPFFRVPAVVKELCTTRVLGMELAGGVPLDQCQGLSQDLRNQICFQLLTLCLRELFEFRFMQTDPNWANFLYDASSHQVTLLDFGASREFGTEFTDHYIEVVKAAADGDRDCVLQKSRDLKFLTGFETKAFSDAHVEAVMILGEPFATQGPYDFGSGETARRIQDLIPVLLRHRLCPPPEETYALHRKLAGAFLACAHLRAHIACRDLFQDTYHRYWASRQPDAATAGSLPTKGDSWVDPS [ADCK4]”, the melting temperature in the series on HeLa Kyoto [1] (cell cycle stage: G1/S) worked out at 50.7 °C; in the series with HeLa Kyoto [1] (cell cycle stage: mitosis), 49.8 °C. Further, the “solubility in G1/S (log2)” value in the series on HeLa Kyoto [2] stood at 0.00454. Further, the figures for the thermal stability score with HeLa Kyoto [3] (setting [5]) and in the series on HeLa Kyoto [3] (cell cycle stage: mitosis) were -0.115 and 0.518, respectively. For the same substance, the “solubility change mitosis (log2)” value in the series on HeLa Kyoto [4] came to 0.0635.

With RHOG, the melting temperature was determined as 55.9 °C in the series on HeLa Kyoto [1] (cell cycle stage: G1/S) and 55.2 °C with HeLa Kyoto [1] (cell cycle stage: mitosis). The “solubility in G1/S (log2)” value with HeLa Kyoto [2] was 0.562. The thermal stability score in the series on HeLa Kyoto [3] (setting [5]) is -1.81; in the series on HeLa Kyoto [3] (cell cycle stage: mitosis) it was -2.65. For the same substance, the “solubility change mitosis (log2)” value in the series with HeLa Kyoto [4] is -0.00567.

Consider “MSEQSICQARAAVMVYDDANKKWVPAGGSTGFSRVHIYHHTGNNTFRVVGRKIQDHQVVINCAIPKGLKYNQATQTFHQWRDARQVYGLNFGSKEDANVFASAMMHALEVLNSQETGPTLPRQNSQLPAQVQNGPSQEELEIQRRQLQEQQRQKELERERLERERMERERLERERLERERLERERLEQEQLERERQERERQERLERQERLERQERLERQERLDRERQERQERERLERLERERQERERQEQLEREQLEWERERRISSAAAPASVETPLNSVLGDSSASEPGLQAASQPAETPSQQGIVLGPLAPPPPPPLPPGPAQASVALPPPPGPPPPPPLPSTGPPPPPPPPPLPNQVPPPPPPPPAPPLPASGFFLASMSEDNRPLTGLAAAIAGAKLRKVSRMEDTSFPSGGNAIGVNSASSKTDTGRGNGPLPLGGSGLMEEMSALLARRRRIAEKGSTIETEQKEDKGEDSEPVTSKASSTSTPEPTRKPWERTNTMNGSKSPVISRRDSPRKNQIVFDNRSYDSLHRPKSTPLSQPSANGVQTEGLDYDRLKQDILDEMRKELTKLKEELIDAIRQELSKSNTA [ENAH]”, for which the values for the melting temperature in the series on HeLa Kyoto [1] (cell cycle stage: G1/S) and with HeLa Kyoto [1] (cell cycle stage: mitosis) were 51.7 °C and 51.9 °C, respectively. For the same substance, in the series with HeLa Kyoto [2], the “solubility in G1/S (log2)” value worked out at 0.13. For the same substance, the thermal stability score with HeLa Kyoto [3] (setting [5]) came to 2.28; in the series with HeLa Kyoto [3] (cell cycle stage: mitosis) it was 8.8. Besides, the “solubility change mitosis (log2)” value in the series with HeLa Kyoto [4] turned out to be 0.0923.

As for “MASSVGNVADSTEPTKRMLSFQGLAELAHREYQAGDFEAAERHCMQLWRQEPDNTGVLLLLSSIHFQCRRLDRSAHFSTLAIKQNPLLAEAYSNLGNVYKERGQLQEAIEHYRHALRLKPDFIDGYINLAAALVAAGDMEGAVQAYVSALQYNPDLYCVRSDLGNLLKALGRLEEAKACYLKAIETQPNFAVAWSNLGCVFNAQGEIWLAIHHFEKAVTLDPNFLDAYINLGNVLKEARIFDRAVAAYLRALSLSPNHAVVHGNLACVYYEQGLIDLAIDTYRRAIELQPHFPDAYCNLANALKEKGSVAEAEDCYNTALRLCPTHADSLNNLANIKREQGNIEEAVRLYRKALEVFPEFAAAHSNLASVLQQQGKLQEALMHYKEAIRISPTFADAYSNMGNTLKEMQDVQGALQCYTRAIQINPAFADAHSNLASIHKDSGNIPEAIASYRTALKLKPDFPDAYCNLAHCLQIVCDWTDYDERMKKLVSIVADQLEKNRLPSVHPHHSMLYPLSHGFRKAIAERHGNLCLDKINVLHKPPYEHPKDLKLSDGRLRVGYVSSDFGNHPTSHLMQSIPGMHNPDKFEVFCYALSPDDGTNFRVKVMAEANHFIDLSQIPCNGKAADRIHQDGIHILVNMNGYTKGARNELFALRPAPIQAMWLGYPGTSGALFMDYIITDQETSPAEVAEQYSEKLAYMPHTFFIGDHANMFPHLKKKAVIDFKSNGHIYDNRIVLNGIDLKAFLDSLPDVKIVKMKCPDGGDNADSSNTALNMPVIPMNTIAEAVIEMINRGQIQITINGFSISNGLATTQINNKAATGEEVPRTIIVTTRSQYGLPEDAIVYCNFNQLYKIDPSTLQMWANILKRVPNSVLWLLRFPAVGEPNIQQYAQNMGLPQNRIIFSPVAPKEEHVRRGQLADVCLDTPLCNGHTTGMDVLWAGTPMVTMPGETLASRVAASQLTCLGCLELIAKNRQEYEDIAVKLGTDLEYLKKVRGKVWKQRISSPLFNTKQYTMELERLYLQMWEHYAAGNKPDHMIKPVEVTESA [OGT]”, the melting temperature in the series with HeLa Kyoto [1] (cell cycle stage: G1/S) turned out to be 49.4 °C; in the series with HeLa Kyoto [1] (cell cycle stage: mitosis), 50.3 °C. For the same substance, in the series on HeLa Kyoto [2], the “solubility in G1/S (log2)” value is 0.302. Also, the thermal stability score in the series on HeLa Kyoto [3] (setting [5]) is -0.271; in the series on HeLa Kyoto [3] (cell cycle stage: mitosis), 1.57. The “solubility change mitosis (log2)” value with HeLa Kyoto [4] was -0.0669.

Take “MVLLTMIARVADGLPLAASMQEDEQSGRDLQQYQSQAKQLFRKLNEQSPTRCTLEAGAMTFHYIIEQGVCYLVLCEAAFPKKLAFAYLEDLHSEFDEQHGKKVPTVSRPYSFIEFDTFIQKTKKLYIDSRARRNLGSINTELQDVQRIMVANIEEVLQRGEALSALDSKANNLSSLSKKYRQDAKYLNMRSTYAKLAAVAVFFIMLIVYVRFWWL [SEC22B]”: the melting temperature worked out at 51.3 °C with HeLa Kyoto [1] (cell cycle stage: G1/S) and 52.2 °C in the series with HeLa Kyoto [1] (cell cycle stage: mitosis). Moreover, in the series on HeLa Kyoto [2], the “solubility in G1/S (log2)” value is -0.0184. The results for the thermal stability score in the series with HeLa Kyoto [3] (setting [5]) and in the series with HeLa Kyoto [3] (cell cycle stage: mitosis) were 4.24 and 5.81, respectively. In addition, the “solubility change mitosis (log2)” value with HeLa Kyoto [4] is 0.0289.
